Measurements from patent US20030198634A1 (published 2003).

Columns and labels:
human lymphotoxin (TNFβ) = molecular target: T1, human lymphotoxin (TNFβ) (human, UniProt P01374 35-205, limits assumed); experiment: cell-based or functional assay
T1 sequence (looked up): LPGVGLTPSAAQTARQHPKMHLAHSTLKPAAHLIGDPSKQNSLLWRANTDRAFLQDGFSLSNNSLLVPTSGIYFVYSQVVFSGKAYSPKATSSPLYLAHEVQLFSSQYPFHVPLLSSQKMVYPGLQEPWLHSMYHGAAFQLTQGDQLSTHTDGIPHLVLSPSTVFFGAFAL

[1] = molecular target: human tumor necrosis factor-α (TNFα) (human, UniProt P01375 77-233); experiment: cell-based or functional assay
Sequence of human tumor necrosis factor-α (TNFα) (P01375 77-233): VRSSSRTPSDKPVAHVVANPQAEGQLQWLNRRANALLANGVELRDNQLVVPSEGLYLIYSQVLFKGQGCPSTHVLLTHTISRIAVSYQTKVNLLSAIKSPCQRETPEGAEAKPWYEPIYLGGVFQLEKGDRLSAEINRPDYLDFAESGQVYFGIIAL

p55-sf2 (p55 TNF receptor/IgG1 heavy chain single fusion with truncated light chain JCK) (from UniProt P19438) (Fc fusion)
amount needed for the same degree of inhibition of TNFβ, against p75P-sf2 (fold against p75P-sf2) (human lymphotoxin (TNFβ)): 3

B1: chimeric mouse/human IgG1 anti-platelet mAb (7E3) (antibody, INN chains, looked up, V domains shown)
VH: EVQLQQSGTVLARPGASVKMSCEASGYTFTNYWMHWVKQRPGQGLEWIGAIYPGNSDTSYIQKFKGKAKLTAVTSTTSVYMELSSLTNEDSAVYYCTLYDGYYVFAYWGQGTLVTVSA
VL: EIVLTQSPVTLSVTPGDSVSLSCRASRDISNNLHWFQQTSHESPRLLIKYASQSMSGIPSRFSGSGSGTDFTLSINSVETEDFGMYFCQQTNSWPYTFGGGTKLEIK
modifications: IgG1
IL-6 in supernatant of FS-4 fibroblasts (ng/ml), rhTNF 0.3 ng/ml, antibody 4 µg/ml (no antibody: 1.36) [1]: 1.6 ng/mL
IL-6 in supernatant of FS-4 fibroblasts (ng/ml), rhTNF 1.5 ng/ml, antibody 4 µg/ml (no antibody: 2.00) [1]: 1.96 ng/mL
IL-6 in supernatant of FS-4 fibroblasts (ng/ml), rhTNF 7.5 ng/ml, antibody 4 µg/ml (no antibody: 2.56) [1]: 2.16 ng/mL

B2: p75P-sf2 (p75 amino acids 1-182 fused to the IgG1 heavy chain; lacks the C-terminal 53 amino acids of the p75 extracellular domain) (Fc fusion)
chain: QLPAQVAFTPYAPEPGSTCRLREYYDQTAQMCCSKCSPGQHAKVFCTKTSDTVCDSCEDSTYTQLWNWVPECLSCGSRCSSDQVETQACTREQNRICTCRPGWYCALSKQEGCRLCAPLRKCRPGFGVARPGTETSDVVCKPCAPGTFSNTTSSTDICRPHQICNVVAIPGNASMDAVCTSTSDGTLVTVSS
IC50 = concentration of fusion protein required to inhibit 2 ng/ml (39.2 pM) TNFα by 50%, WEHI 164 cytotoxicity assay [1]: 70 pM
Molar ratio fp: TNFα at IC50, WEHI 164 cytotoxicity assay [1]: 1.8

B3: p75-sf2 (complete extracellular domain of p75 fused to the IgG1 heavy chain) (Fc fusion)
chain: QLPAQVAFTPYAPEPGSTCRLREYYDQTAQMCCSKCSPGQHAKVFCTKTSDTVCDSCEDSTYTQLWNWVPECLSCGSRCSSDQVETQACTREQNRICTCRPGWYCALSKQEGCRLCAPLRKCRPGFGVARPGTETSDVVCKPCAPGTFSNTTSSTDICRPHQICNVVAIPGNASMDAVCTSTSPTRSMAPGAVHLPQPVSTRSQHTQPTPEPSTAPSTSFLLPMGPSPPAEGSTGDGTLVTVSS
amount needed for the same degree of inhibition of TNFβ, against p75P-sf2 (human lymphotoxin (TNFβ)): 3 fold against p75P-sf2
